# From patent US20100184658A1 (published 2010)
# T1: ADRBK1 (GRK2) (UniProt P25098 1-689, limits assumed)
# T1 sequence (looked up): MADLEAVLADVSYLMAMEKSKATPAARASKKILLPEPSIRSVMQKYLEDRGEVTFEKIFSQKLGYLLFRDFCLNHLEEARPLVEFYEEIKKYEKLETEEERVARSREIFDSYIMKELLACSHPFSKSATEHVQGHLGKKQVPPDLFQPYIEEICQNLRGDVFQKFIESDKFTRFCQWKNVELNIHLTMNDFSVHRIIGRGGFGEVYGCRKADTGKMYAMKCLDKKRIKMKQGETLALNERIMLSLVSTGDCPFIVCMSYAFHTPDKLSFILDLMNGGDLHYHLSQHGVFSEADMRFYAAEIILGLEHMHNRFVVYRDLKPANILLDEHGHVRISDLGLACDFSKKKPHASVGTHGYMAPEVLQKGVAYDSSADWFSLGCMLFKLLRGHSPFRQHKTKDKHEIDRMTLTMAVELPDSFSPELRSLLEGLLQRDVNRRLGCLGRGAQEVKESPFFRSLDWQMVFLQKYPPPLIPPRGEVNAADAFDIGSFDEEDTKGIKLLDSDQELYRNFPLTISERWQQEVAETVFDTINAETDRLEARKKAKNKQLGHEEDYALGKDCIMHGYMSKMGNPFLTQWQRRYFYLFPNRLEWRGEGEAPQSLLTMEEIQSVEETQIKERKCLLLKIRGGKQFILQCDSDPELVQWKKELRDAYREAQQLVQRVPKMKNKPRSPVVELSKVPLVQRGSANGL
# T2: PDK1 (human (printed as (h)), UniProt O15530 1-556, limits assumed)
# T2 sequence (looked up): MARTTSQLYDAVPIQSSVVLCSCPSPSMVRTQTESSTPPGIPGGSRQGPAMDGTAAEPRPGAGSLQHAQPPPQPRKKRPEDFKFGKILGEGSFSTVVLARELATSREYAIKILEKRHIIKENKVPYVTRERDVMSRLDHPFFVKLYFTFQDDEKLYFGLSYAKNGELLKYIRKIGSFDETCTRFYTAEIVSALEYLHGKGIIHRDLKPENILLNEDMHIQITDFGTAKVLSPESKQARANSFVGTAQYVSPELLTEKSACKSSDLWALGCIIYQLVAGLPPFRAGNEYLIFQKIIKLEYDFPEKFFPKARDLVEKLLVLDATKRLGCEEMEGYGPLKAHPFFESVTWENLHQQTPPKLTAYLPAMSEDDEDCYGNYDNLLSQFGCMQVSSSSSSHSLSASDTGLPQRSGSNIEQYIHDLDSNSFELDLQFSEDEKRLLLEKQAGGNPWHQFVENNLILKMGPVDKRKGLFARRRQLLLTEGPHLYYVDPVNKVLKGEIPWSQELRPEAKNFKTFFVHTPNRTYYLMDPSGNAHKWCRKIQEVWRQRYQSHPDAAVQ
# T3: PRKCZ (PKC zeta) (human (printed as (h)), UniProt Q05513 1-592, limits assumed)
# T3 sequence (looked up): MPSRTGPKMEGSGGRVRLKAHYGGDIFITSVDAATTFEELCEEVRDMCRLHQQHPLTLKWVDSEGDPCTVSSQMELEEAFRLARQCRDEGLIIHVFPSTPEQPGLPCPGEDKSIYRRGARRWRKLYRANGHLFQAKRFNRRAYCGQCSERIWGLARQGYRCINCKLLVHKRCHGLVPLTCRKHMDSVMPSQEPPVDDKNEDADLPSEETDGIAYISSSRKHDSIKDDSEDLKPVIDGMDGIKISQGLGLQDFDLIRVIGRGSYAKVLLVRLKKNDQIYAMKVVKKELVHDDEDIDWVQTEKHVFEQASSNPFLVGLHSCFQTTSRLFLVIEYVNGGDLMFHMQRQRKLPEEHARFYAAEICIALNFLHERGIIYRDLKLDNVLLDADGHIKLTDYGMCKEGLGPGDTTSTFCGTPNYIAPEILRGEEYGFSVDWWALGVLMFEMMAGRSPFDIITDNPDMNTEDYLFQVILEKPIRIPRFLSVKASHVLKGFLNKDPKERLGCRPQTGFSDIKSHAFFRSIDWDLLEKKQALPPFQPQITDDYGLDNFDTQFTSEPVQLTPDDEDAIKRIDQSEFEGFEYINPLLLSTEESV
# How the values were obtained:
# Assay in all cases: cell-based or functional assay
# ADRBK1 (GRK2) = target: T1, ADRBK1 (GRK2)
# PDK1 = target: T2, PDK1
# [1] = target: MINK1 Misshapen-like kinase 1 (UniProt Q8N4C8 1-320, limits assumed)
# MAP4K4 (HGK) = MAP4K4 (HGK) (UniProt O95819 1-328, limits assumed)
# ABL1 T315I = ABL1 T315I (UniProt P00519 1-1130, limits assumed)
# SRMS (Srm) = SRMS (Srm) (UniProt Q9H3Y6 1-488, limits assumed)
# PRKCZ (PKC zeta) = target: T3, PRKCZ (PKC zeta)
# [2] = target: RPS6KB1 (p70S6K) Ribosomal protein S6 kinase, 70 kDa, polypeptide 1 (human (printed as (h)), UniProt P23443 1-421, limits assumed)
# GRK6 = GRK6 (UniProt P43250 1-576, limits assumed)
# ABL1 E255K = ABL1 E255K (UniProt P00519 1-1130, limits assumed)
# Further: test concentration or dose not given here.
# Chain of RPS6KB1 (p70S6K) Ribosomal protein S6 kinase, 70 kDa, polypeptide 1 (human (printed as (h)), UniProt P23443 1-421, limits assumed) (P23443 1-421 limits assumed): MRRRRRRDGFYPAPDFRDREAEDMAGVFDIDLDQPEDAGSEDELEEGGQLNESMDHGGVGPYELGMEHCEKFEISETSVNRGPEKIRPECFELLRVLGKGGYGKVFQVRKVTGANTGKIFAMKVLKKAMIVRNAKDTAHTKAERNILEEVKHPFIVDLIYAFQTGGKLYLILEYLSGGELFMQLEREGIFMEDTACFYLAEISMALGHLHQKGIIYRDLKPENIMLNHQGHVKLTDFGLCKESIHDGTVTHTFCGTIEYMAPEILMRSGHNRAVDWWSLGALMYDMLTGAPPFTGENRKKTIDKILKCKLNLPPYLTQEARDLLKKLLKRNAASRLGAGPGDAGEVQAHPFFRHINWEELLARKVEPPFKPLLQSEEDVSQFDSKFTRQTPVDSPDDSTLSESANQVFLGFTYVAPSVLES
# Chain of ABL1 E255K (P00519 whole entry E255K): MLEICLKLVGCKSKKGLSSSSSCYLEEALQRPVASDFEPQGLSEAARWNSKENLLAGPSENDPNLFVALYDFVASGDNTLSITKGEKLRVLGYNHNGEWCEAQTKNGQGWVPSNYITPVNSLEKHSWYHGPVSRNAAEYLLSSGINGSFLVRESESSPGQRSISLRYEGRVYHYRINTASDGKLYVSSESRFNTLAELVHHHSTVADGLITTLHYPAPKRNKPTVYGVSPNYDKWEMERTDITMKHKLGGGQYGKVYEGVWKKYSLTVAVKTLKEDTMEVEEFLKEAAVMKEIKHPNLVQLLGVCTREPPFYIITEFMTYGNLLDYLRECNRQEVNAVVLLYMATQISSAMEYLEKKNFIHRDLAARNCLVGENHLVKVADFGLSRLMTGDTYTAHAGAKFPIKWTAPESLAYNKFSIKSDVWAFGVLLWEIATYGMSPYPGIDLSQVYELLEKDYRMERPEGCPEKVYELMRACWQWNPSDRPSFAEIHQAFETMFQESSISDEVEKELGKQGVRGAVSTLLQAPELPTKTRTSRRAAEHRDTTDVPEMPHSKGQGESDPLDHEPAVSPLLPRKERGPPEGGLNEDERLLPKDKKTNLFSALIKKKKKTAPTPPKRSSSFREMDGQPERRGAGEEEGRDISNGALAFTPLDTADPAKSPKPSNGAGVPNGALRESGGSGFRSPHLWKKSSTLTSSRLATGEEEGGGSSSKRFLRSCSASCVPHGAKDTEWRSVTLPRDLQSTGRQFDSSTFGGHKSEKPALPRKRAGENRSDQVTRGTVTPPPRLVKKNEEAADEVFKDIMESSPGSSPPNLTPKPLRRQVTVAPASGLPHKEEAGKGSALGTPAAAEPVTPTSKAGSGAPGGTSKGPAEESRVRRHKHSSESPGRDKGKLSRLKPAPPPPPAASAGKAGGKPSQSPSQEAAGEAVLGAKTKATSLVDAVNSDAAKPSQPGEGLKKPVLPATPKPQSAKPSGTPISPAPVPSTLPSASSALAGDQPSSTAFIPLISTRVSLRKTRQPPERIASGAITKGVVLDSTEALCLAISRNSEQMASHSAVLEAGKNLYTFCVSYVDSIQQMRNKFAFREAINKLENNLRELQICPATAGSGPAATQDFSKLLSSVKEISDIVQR
# Chain of SRMS (Srm) (Q9H3Y6 whole entry): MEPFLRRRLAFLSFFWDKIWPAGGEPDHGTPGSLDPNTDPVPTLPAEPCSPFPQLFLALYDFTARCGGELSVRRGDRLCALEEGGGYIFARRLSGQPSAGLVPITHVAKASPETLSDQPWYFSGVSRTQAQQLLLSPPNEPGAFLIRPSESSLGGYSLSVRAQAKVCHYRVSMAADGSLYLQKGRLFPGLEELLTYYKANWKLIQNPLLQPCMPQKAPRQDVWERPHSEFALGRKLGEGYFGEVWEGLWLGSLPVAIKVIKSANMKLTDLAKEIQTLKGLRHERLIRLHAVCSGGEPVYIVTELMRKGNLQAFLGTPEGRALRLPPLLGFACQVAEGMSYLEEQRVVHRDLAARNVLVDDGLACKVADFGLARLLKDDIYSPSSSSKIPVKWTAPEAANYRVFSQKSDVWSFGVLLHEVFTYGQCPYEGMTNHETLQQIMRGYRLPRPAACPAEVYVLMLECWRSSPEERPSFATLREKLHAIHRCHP
# Chain of MINK1 Misshapen-like kinase 1 (Q8N4C8 1-320 limits assumed): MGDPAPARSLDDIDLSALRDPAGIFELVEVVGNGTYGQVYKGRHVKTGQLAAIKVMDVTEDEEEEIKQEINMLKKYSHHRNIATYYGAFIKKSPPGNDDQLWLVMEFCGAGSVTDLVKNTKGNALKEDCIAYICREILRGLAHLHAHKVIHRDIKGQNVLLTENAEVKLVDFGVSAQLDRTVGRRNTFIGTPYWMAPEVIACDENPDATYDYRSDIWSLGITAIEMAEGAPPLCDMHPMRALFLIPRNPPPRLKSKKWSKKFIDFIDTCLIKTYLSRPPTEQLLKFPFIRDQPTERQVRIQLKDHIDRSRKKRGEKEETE
# Chain of GRK6 (P43250 whole entry): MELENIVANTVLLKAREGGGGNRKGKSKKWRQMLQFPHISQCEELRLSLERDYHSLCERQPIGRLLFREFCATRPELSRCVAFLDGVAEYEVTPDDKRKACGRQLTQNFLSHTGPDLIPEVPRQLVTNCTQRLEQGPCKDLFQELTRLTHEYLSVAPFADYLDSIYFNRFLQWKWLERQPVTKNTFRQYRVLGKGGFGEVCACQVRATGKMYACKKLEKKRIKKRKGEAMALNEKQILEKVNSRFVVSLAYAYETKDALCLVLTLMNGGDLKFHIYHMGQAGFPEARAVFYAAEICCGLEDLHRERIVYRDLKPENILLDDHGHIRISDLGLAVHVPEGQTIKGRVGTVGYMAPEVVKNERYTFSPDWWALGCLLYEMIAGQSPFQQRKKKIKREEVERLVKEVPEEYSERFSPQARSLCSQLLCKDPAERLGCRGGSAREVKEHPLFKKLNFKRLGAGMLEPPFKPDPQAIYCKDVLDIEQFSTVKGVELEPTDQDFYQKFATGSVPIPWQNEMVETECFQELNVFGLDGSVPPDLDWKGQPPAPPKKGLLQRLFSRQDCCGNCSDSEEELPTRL
# Chain of MAP4K4 (HGK) (O95819 1-328 limits assumed): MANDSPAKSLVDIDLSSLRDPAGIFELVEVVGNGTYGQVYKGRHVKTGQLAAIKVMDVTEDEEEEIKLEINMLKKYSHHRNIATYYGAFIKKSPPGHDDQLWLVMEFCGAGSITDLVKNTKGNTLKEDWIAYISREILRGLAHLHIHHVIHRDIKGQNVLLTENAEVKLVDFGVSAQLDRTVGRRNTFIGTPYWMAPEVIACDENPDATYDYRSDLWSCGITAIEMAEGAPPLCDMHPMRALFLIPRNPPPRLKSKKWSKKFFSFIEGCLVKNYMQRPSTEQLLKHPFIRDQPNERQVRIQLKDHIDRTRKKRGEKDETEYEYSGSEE
# Chain of ABL1 T315I (P00519 whole entry T315I): as the sequence (P00519 whole entry E255K) above, with K255E, T315I counted along it
binder,measurement,setting,value
SGRPPMIVWFNRPFLIAVSHTHGQTILFMAKVINPVGA [D3 peptide],% Inhibition mean,ADRBK1 (GRK2),56.1%
same,% Inhibition mean,PDK1,64%
same,% Inhibition mean,[1],101%
same,% Inhibition mean,MAP4K4 (HGK),100%
same,% Inhibition mean,ABL1 T315I,69.8%
same,% Inhibition mean,SRMS (Srm),46.5%
same,% Inhibition mean,PRKCZ (PKC zeta),74.4%
same,% Inhibition mean,[2],100%
same,% Inhibition mean,GRK6,57.1%
same,% Inhibition mean,ABL1 E255K,65.6%
